Target: T1, mouse TfR (mouse, UniProt Q62351 89-763, limits assumed)
T1 construct: The assay and the form of the protein are not described
Experiment: not described

T1 sequence (Q62351 89-763 limits assumed): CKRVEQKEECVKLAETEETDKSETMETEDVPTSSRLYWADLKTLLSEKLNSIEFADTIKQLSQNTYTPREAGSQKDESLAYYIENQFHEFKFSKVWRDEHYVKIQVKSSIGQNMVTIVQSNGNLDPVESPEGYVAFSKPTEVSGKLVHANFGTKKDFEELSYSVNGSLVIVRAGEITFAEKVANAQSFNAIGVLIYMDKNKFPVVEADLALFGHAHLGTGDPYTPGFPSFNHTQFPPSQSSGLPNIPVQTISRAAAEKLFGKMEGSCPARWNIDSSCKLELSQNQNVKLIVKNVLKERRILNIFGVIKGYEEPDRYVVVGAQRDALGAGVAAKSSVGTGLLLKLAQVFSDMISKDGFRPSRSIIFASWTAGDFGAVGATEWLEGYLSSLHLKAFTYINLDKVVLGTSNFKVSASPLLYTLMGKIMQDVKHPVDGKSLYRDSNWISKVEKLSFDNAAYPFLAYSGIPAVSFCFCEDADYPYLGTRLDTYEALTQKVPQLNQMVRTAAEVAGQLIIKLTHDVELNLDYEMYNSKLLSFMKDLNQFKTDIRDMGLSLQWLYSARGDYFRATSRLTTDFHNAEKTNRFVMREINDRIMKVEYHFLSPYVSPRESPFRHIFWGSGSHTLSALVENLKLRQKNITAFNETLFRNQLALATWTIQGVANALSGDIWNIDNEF

B1: TfR436 antibody (antibody, V domains shown)
VH: DVQLVQSGGGVVQPGRSLRLSCAASGFPFKSYGMHWVRQAPGKGLEWVAVISYDGSNKYYADSVKGRFTISRDNSKNTLYLQMNSLRGEDTAVYYCARDSNFWSGYYSPVDVWGQGTTVTVSS
VL: NFMLTQPHSVSESPGKTVTISCTRSSGSIASNSVQWYQQRPGSAPITVIYEDTQRPSGVPDRFSGSIDSSSNSASLTISGLQTEDEADYYCQSYDSAYHWVFGGGTKLAVL
notes: The antibody is the one of paragraphs 0090 and 0091 of WO2014/073641 and was detected with an anti-human IgG Fc gamma secondary antibody; also called parent antibody
B1: no binding.

Reference: patent US20240288453A1 (NATIONAL UNIVERSITY CORPORATION TOKAI NATIONAL HIGHER …, published 2024)
